Legend:
[1] = target: T1, recombinant hexameric C1q complement protein (human) (human, UniProt P02745 23-245; P02746 28-253; P02747 29-245); assay: HTRF Human C1q Binding Kit (Cisbio), HTRF ratio at 70 nM antibody with the diluent-only background subtracted
T1 construct: also called complement factor C1q
Protocol: C1q interaction studies were performed using the HTRF Human C1q Binding Kit (Cisbio) according to the manufacturer's instructions. […] If the antibodies bind to human C1q, an anti-C1q antibody labelled with Europium cryptate (fluorescence donor) can come in close proximity to the fluorescence acceptor and fluorescence resonance energy transfer (FRET) is triggered. Fluorescence emission at 665 nm is measured on a microplate reader Infinite M200 Pro (Tecan)._Graphs show means of n=2±SD.
HTRF ratio was calculated by dividing the acceptor emission signal at 665 nm by the donor emission signal at 620 nm and multiplying by 10000.

[2] = target: T2, human Napi2b-mCherry on HEK293 cells (human, UniProt O95436 1-690); assay: flow cytometry on HEK293 cells expressing human Napi2b-mCherry (panel Napi2b-HEK293), Alexa-dye anti-human IgG H+L secondary antibody, MFI ratio to the non-specific binding control
T2 construct: also called Napi2b (SLC34A2); HEK293 cells overexpressing Napi2b
T2 sequence: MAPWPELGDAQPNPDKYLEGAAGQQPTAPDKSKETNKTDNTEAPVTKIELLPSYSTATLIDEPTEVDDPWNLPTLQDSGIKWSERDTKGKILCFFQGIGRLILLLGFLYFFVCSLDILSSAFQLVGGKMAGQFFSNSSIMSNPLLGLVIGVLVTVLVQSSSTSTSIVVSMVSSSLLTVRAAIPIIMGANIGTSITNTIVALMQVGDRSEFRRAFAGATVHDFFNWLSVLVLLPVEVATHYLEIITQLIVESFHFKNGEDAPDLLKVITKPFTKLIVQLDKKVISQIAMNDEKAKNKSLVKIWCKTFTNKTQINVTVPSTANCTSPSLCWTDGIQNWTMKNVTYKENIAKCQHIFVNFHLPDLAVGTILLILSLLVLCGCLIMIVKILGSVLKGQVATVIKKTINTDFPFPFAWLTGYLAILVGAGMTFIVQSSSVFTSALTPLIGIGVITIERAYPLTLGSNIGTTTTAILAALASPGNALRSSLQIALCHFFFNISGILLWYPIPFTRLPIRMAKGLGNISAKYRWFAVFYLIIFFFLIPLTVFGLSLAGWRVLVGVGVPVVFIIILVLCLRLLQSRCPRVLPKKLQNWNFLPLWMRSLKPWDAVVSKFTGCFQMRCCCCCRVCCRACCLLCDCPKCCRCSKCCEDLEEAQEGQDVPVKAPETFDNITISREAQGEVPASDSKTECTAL
Protocol: To determine concentration-dependent binding, HEK293 cells transiently or stably expressing human Napi2a-, Napi2b- and Napi2c-mCherry were incubated with antibodies or ADCs in concentrations ranging from 0.002 to 200 nM, stained with an Alexa-dye-labeled anti-human IgG H+L secondary antibody (Thermo Fisher Scientific), and analyzed by flow cytometry. Mean fluorescence intensity (MFI) ratios were normalized to the non-specific binding control. The assay was performed in duplicates and data points were analyzed by a non-linear regression using a one-site specific binding model using Prism 9 software.

[3] = target: T3, HEK293 rat-NaPi2B-mCherry (Rattus norvegicus, UniProt Q9JJ09); assay: flow cytometry on HEK293 cells stably expressing rat full-length NaPi2b-mCherry, Alexa-dye anti-human IgG H+L secondary antibody, MFI ratio, one-site specific binding fit; the Kd table prints no unit, the concentration axis is in nM
T3 construct: full-length mCherry fusion stably expressed on HEK293 cells; also called rat full-length NaPi2b-mCherry on HEK293 cells
T3 sequence (target on cells, looked up): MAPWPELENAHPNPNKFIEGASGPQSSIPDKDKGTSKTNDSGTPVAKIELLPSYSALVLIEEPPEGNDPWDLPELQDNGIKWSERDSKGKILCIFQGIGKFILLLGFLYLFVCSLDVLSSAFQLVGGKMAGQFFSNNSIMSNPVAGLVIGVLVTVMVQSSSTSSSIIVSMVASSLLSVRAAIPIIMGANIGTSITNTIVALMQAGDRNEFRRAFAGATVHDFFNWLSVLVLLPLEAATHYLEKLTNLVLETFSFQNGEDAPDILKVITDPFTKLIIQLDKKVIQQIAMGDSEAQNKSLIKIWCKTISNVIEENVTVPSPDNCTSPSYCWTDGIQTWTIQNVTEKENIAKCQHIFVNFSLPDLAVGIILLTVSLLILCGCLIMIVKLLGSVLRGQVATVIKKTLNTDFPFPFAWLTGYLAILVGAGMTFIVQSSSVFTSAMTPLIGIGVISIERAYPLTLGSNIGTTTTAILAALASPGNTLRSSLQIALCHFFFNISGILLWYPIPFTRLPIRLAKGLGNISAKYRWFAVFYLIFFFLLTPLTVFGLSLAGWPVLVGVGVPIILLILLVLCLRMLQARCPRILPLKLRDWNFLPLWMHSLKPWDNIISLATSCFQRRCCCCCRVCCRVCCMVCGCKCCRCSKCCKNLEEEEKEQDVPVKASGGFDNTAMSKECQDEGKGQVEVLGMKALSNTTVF
Description: (§1) HEK293 cells stably overexpressing human and rat Napi2b were generated by stable integration of a human or rat full-length Napi2b-mCherry-(GGGS)3x-mCherry expression construct under control of a human EF1 promoter and a Puromycin-selection cassette under a CMV promoter into the parental HEK293 cell line. In brief, cells were transfected with the linearized plasmids using Lipfectamine 2000 (Thermo Fisher) and selected with Puromycin antibiotic. Cells were then single cell cloned in 96-well plates via serial dilution under continuous antibiotic selection. Clones were screened for target expression via flow cytometry and mCherry fluorescence via flow cytometry and fluorescence microscopy. Target- and mCherry-positive clones were expanded and used for further experiments. […] Binding of antibodies was investigated on mCherry-positive cells. Mean fluorescence intensity (MFI) ratios were normalized to the secondary antibody control. The assay was performed in duplicates and data points were analyzed by a non-linear regression using a one-site specific binding model to derive KD values using Prism 9 software.

[4] = target: T2, human Napi2b-mCherry on HEK293 cells; assay: flow cytometry on HEK293 cells stably expressing human full-length NaPi2b-mCherry, Alexa-dye anti-human IgG H+L secondary antibody, MFI ratio, one-site specific binding fit; the Kd table prints no unit, the concentration axis is in nM
Description: as §1

T1 sequence (P02745 23-245 limits assumed, chain 1 of 3): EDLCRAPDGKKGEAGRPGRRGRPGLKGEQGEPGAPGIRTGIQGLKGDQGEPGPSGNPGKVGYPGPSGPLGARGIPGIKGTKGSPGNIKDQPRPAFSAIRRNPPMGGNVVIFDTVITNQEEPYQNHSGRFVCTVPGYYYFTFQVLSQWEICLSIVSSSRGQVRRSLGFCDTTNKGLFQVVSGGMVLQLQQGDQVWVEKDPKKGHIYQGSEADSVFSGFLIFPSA
T1 sequence (P02746 28-253 limits assumed, chain 2 of 3): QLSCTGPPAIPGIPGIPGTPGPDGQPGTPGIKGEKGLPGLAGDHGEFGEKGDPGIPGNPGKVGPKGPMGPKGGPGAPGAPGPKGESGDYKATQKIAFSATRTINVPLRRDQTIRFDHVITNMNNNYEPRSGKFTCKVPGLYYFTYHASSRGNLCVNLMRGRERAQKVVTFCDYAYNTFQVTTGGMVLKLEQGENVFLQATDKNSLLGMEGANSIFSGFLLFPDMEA
T1 sequence (P02747 29-245 limits assumed, chain 3 of 3): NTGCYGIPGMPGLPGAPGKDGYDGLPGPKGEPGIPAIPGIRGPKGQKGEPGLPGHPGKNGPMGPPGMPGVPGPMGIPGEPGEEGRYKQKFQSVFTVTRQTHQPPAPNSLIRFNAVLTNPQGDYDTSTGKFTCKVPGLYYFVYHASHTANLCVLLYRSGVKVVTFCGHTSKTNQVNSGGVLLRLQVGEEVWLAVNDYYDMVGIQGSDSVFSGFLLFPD

binding result [1]: no binding (tested: 70 nM)
EC50 (read off the curve) [2]: ~0.7 nM
Kd [3]: 0.539 nM
Kd [4]: 1.52 nM
B1: AV25 mAb, LALA-silenced (AV25 HC-LALA) (antibody, human IgG1, kappa, L234A L235A)
heavy: not shown
light: DIQMTQSPSSLSASVGDRVTITCSASQDIGNFLNWYQQKPGKTVKVLIYYASSLYSGVPSRFSGSGSGTDYTLTISSLQPEDFATYYCQQYSKLPLTFGQGTKLELKRTVAAPSVFIFPPSDEQLKSGTASVVCLLNNFYPREAKVQWKVDNALQSGNSQESVTEQDSKDSTYSLSSTLTLSKADYEKHKVYACEVTHQGLSSPVTKSFNRGEC
notes: also called unmodified AV25 mAb

Reference: patent publication US20240182596A1 (TUBULIS, published 2024)
